Patent US20110038881A1 (published 2011)

Legend:
HLA-DRB1*1501 = HLA-DRB1*1501 (human); assay: competition binding
HLA-DRB1*0301 = HLA-DRB1*0301 (human); assay: competition binding
HLA-DRB1*0101 [1] = target: HLA-DRB1*0101 (human); assay: competition binding
HLA-DRB1*0701 = HLA-DRB1*0701 (human); assay: competition binding
HLA-DRB1*1101 = HLA-DRB1*1101 (human); assay: competition binding
HLA-DRB5*0101 = HLA-DRB5*0101 (human); assay: competition binding
HLA-DRB1*1301 = HLA-DRB1*1301 (human); assay: competition binding
HLA-DRB3*0101 = HLA-DRB3*0101 (human); assay: competition binding
HLA-DRB4*0101 = HLA-DRB4*0101 (human); assay: competition binding
HLA-DRB1*0401 = HLA-DRB1*0401 (human); assay: competition binding
HLA-DRB1*0101 [2] = target: HLA-DRB1*0101 (human); assay: competition

Row | IC50 (HLA-DRB1*1501) | IC50 (HLA-DRB1*0301) | IC50 (HLA-DRB1*0101 [1]) | IC50 (HLA-DRB1*0701) | IC50 (HLA-DRB1*1101) | IC50 (HLA-DRB5*0101) | IC50 (HLA-DRB1*1301) | IC50 (HLA-DRB3*0101) | IC50 (HLA-DRB4*0101) | IC50 (HLA-DRB1*0401) | IC50 (HLA-DRB1*0101 [2]) | Binder
1 | 374 nM | 164 nM | 122 nM | 786 nM | 4000 nM | 1550 nM | > 100000 nM | 456 nM | 2180 nM | 354 nM |  | TQFVRFDSDAASQRM [peptide p7 (residues 31-45 of HLA-A2)]
2 |  |  |  |  |  |  |  |  |  |  | 1 nM | WRFLRGYHQYAYDGK [peptide p21 (residues 107-121 of HLA-A2)]
